In US20200164059A1 (FRED HUTCHINSON CANCER RESEARCH CENTER, published 2020):

Columns and labels:
[1] = target: T1, EBV gH/gL heterodimer, recombinant ectodomain (Epstein Barr virus); assay: BLI kinetics, pH 5.0, ligand AMMO1 Mab, analyte gH/gL; KD M x10^-9
T1 construct: range 19-679;range 24-137

[2] = target: T1, EBV gH/gL heterodimer, recombinant …; assay: BLI kinetics, pH 7.4, ligand AMMO1 Mab, analyte gH/gL; KA M^-1 x10^7
[3] = target: T1, EBV gH/gL heterodimer, recombinant …; assay: BLI kinetics, pH 7.4, ligand AMMO1 Mab, analyte gH/gL; koff (1/s) x10^-3
[4] = target: T1, EBV gH/gL heterodimer, recombinant …; assay: BLI kinetics, pH 5.0, ligand AMMO1 Mab, analyte gH/gL; koff (1/s) x10^-3
[5] = target: T1, EBV gH/gL heterodimer, recombinant …; assay: BLI kinetics, pH 7.4, ligand AMMO1 Mab, analyte gH/gL; kon (1/Ms) x10^5
[6] = target: T1, EBV gH/gL heterodimer, recombinant …; assay: BLI kinetics, pH 7.4, ligand AMMO1 Mab, analyte gH/gL; KD M x10^-9
gH/gL on EBV virions = gH/gL on EBV virions (Epstein Barr virus, UniProt P03231 19-706; P03212 23-137); assay: cell-based or functional assay
[7] = target: T1, EBV gH/gL heterodimer, recombinant …; assay: BLI kinetics, pH 5.0, ligand AMMO1 Mab, analyte gH/gL; KA M^-1 x10^7
[8] = target: gH T62A/gL, recombinant ectodomain (Epstein Barr virus)
[9] = target: T1, EBV gH/gL heterodimer, recombinant …; assay: BLI kinetics, pH 5.0, ligand AMMO1 Mab, analyte gH/gL; kon (1/Ms) x10^5

B1: AMMO1 (antibody, V domains shown)
VH: QVQLVQSGADVKKPGASVKVSCKASGYTFIHFGISWVRQAPGQGLEWMGWIDTNNGNTNYAQSLQGRVTMTTDTSTGTAYMELRSLSTDDTAVYFCARALEMGHRSGFPFDYWGQGVLVTVSP
VL: SYELTQPPSVSVAPGQRATITCGGHNIGAKNVHWYQQKPGQAPVLVIQYDSDRPSGIPERFSGSNSGSTATLTISRVEAGDEADYYCQVWDSGRGHPLYVFGGGTKVTVL
notes: also called WT AMMO1; anti-gH/gL MAb AMMO1
[1]
  Kd: 0.13 nM
[2]
  Ka: 8.63e+09 M⁻¹
[3]
  koff: 3.87e-05 s⁻¹
[4]
  koff: 7.31e-05 s⁻¹
[5]
  kon: 334000 M⁻¹ s⁻¹
[6]
  Kd: 0.12 nM
gH/gL on EBV virions
  neutralization of B95.8/F EBV infection of B (Raji) cells, IC50: 0.16 µg/mL
[7]
  Ka: 7.84e+09 M⁻¹
[8]
  Ka: 5.85e+09 M⁻¹
  Kd: 0.17 nM
  koff: 0.000135 s⁻¹
  kon: 789000 M⁻¹ s⁻¹
[9]
  kon: 573000 M⁻¹ s⁻¹
